Measurements from patent US20160310583A1 (SUMITOMO DAINIPPON PHARMA, published 2016).
Where two headings read alike, the source gives them in different places.

What was measured:
Test in all cases: MHC class I stabilization on T2-A24 cells, flow cytometry, 100 ug/mL peptide
HLA-A*02:01 [1] = molecular target: T1, HLA-A*02:01 (human)
T1 construct: whole, on cells; MHC class I molecule, empty until peptide is added; detected with FITC anti-HLA-A02 antibody BB7.2

HLA-A*24:02 [2] = molecular target: T2, HLA-A*24:02 (human)
T2 construct: whole, on cells; MHC class I molecule, empty until peptide is added; detected with FITC anti-HLA-A24 antibody 17A10

HLA-A*24:02 [3] = molecular target: T2, HLA-A*24:02; remark: listed apart in the source
HLA-A*02:01 [4] = molecular target: T1, HLA-A*02:01; remark: listed apart in the source

| Binder | MFI (solvent ratio) (HLA-A*02:01 [1]) | MFI (solvent ratio) (HLA-A*24:02 [2]) | MFI (solvent ratio) (HLA-A*24:02 [3]) | MFI (solvent ratio) (HLA-A*02:01 [4]) |
| --- | --- | --- | --- | --- |
| LVQERVSDFL [FAM83B-derived peptide F47_10] | 1.1 ratio to solvent | 1.5 ratio to solvent | ≥ 1.5 ratio to solvent | – |
| MVQIITGQLV [FAM83B-derived peptide F257_10] | 1.9 ratio to solvent | 1.1 ratio to solvent | – | ≥ 1.5 ratio to solvent |
| YILKNVQKV [FAM83B-derived peptide F63_9] | 3.3 ratio to solvent | 1 ratio to solvent | – | ≥ 1.5 ratio to solvent |
| FLQQRMPTL [FAM83B-derived peptide F476_9] | 2 ratio to solvent | 2.6 ratio to solvent | ≥ 1.5 ratio to solvent | ≥ 1.5 ratio to solvent |
| KVIALVMDI [FAM83B-derived peptide F148_9] | 2.4 ratio to solvent | 1.6 ratio to solvent | ≥ 1.5 ratio to solvent | ≥ 1.5 ratio to solvent |
| SFNGTDNHIRF [FAM83B-derived peptide F466_11] | 1 ratio to solvent | 1.7 ratio to solvent | ≥ 1.5 ratio to solvent | – |
| NYILKNVQKV [FAM83B-derived peptide F62_10] | 2.9 ratio to solvent | 1.6 ratio to solvent | ≥ 1.5 ratio to solvent | ≥ 1.5 ratio to solvent |
| LYARSCVPSSF [FAM83B-derived peptide F276_11] | 1.2 ratio to solvent | 3.4 ratio to solvent | ≥ 1.5 ratio to solvent | – |
| SYGRSSPLL [FAM83B-derived peptide F971_9] | 1.1 ratio to solvent | 1.8 ratio to solvent | ≥ 1.5 ratio to solvent | – |
| HLLTIKETI [FAM83B-derived peptide F131_9] | 1.5 ratio to solvent | 2.4 ratio to solvent | ≥ 1.5 ratio to solvent | ≥ 1.5 ratio to solvent |
| HGLEAYQEFLV [FAM83B-derived peptide F38_11] | 2.5 ratio to solvent | 3.1 ratio to solvent | ≥ 1.5 ratio to solvent | ≥ 1.5 ratio to solvent |
| KVIALVMDIF [FAM83B-derived peptide F148_10] | 1.1 ratio to solvent | 2.6 ratio to solvent | ≥ 1.5 ratio to solvent | – |
| RLCSSSDTLV [FAM83B-derived peptide F799_10] | 2.1 ratio to solvent | 1.2 ratio to solvent | – | ≥ 1.5 ratio to solvent |
| TLSSGTYWPV [FAM83B-derived peptide F86_10] | 3 ratio to solvent | 1 ratio to solvent | – | ≥ 1.5 ratio to solvent |
| TYQHSVSSLASV [FAM83B-derived peptide F305_12] | 2 ratio to solvent | 3.1 ratio to solvent | ≥ 1.5 ratio to solvent | ≥ 1.5 ratio to solvent |
| FLAEEEINYIL [FAM83B-derived peptide F55_11] | 3.6 ratio to solvent | 1 ratio to solvent | – | ≥ 1.5 ratio to solvent |
| VIALVMDIFT [FAM83B-derived peptide F149_10] | 1.3 ratio to solvent | 2.1 ratio to solvent | ≥ 1.5 ratio to solvent | – |
| GLLGGTHIDLL [FAM83B-derived peptide F114_11] | 2.9 ratio to solvent | 1.1 ratio to solvent | – | ≥ 1.5 ratio to solvent |
| VMYGSYSYMWSF [FAM83B-derived peptide F239_12] | 1.6 ratio to solvent | 4 ratio to solvent | ≥ 1.5 ratio to solvent | ≥ 1.5 ratio to solvent |
| ALVMDIFTDV [FAM83B-derived peptide F151_10] | 3.4 ratio to solvent | 1 ratio to solvent | – | ≥ 1.5 ratio to solvent |

| Binder | MFI (solvent ratio) (HLA-A*02:01 [1]) | MFI (solvent ratio) (HLA-A*24:02 [2]) | MFI (solvent ratio) (HLA-A*24:02 [3]) | MFI (solvent ratio) (HLA-A*02:01 [4]) |
| --- | --- | --- | --- | --- |
| SYFKNRGIYTL [FAM83B-derived peptide F335_11] | 1 ratio to solvent | 2.3 ratio to solvent | ≥ 1.5 ratio to solvent | – |
| WYRVAIDILI [FAM83B-derived peptide F27_10] | 1.2 ratio to solvent | 3.2 ratio to solvent | ≥ 1.5 ratio to solvent | – |
| KVMYGSYSYMWSF [FAM83B-derived peptide F238_13] | 1.2 ratio to solvent | 5.1 ratio to solvent | ≥ 1.5 ratio to solvent | – |
| LLDESNFNHFL [FAM83B-derived peptide F179_11] | 1.6 ratio to solvent | 1.1 ratio to solvent | – | ≥ 1.5 ratio to solvent |
| TYQHSVSSL [FAM83B-derived peptide F305_9] | 1.1 ratio to solvent | 2.4 ratio to solvent | ≥ 1.5 ratio to solvent | – |
| PFCKIESSI [FAM83B-derived peptide F939_9] | 0.9 ratio to solvent | 2.7 ratio to solvent | ≥ 1.5 ratio to solvent | – |
| SYQPNENKF (also called FAM83B peptide) [FAM83B-derived peptide SF_9] | 1 ratio to solvent | 2.3 ratio to solvent | ≥ 1.5 ratio to solvent | – |
| VMDIFTDVDIF [FAM83B-derived peptide F153_11] | 0.9 ratio to solvent | 2 ratio to solvent | ≥ 1.5 ratio to solvent | – |
| GWPYVMPGLL [FAM83B-derived peptide F107_10] | 1 ratio to solvent | 2.7 ratio to solvent | ≥ 1.5 ratio to solvent | – |
| NYIEPHYKEW [FAM83B-derived peptide F18_10] | 1 ratio to solvent | 3.2 ratio to solvent | ≥ 1.5 ratio to solvent | – |
| SMVQIITGQLV [FAM83B-derived peptide F256_11] | 3.2 ratio to solvent | 1.1 ratio to solvent | – | ≥ 1.5 ratio to solvent |
| FLAEEEINYI [FAM83B-derived peptide F55_10] | 3.5 ratio to solvent | 1.2 ratio to solvent | – | ≥ 1.5 ratio to solvent |
| FLLVDCQKVM [FAM83B-derived peptide F231_10] | 2 ratio to solvent | 1 ratio to solvent | – | ≥ 1.5 ratio to solvent |
| FLVQERVSDFL [FAM83B-derived peptide F46_11] | – | 1.6 ratio to solvent | ≥ 1.5 ratio to solvent | – |
| HYKEWYRVAI [FAM83B-derived peptide F23_10] | 2 ratio to solvent | 3 ratio to solvent | ≥ 1.5 ratio to solvent | ≥ 1.5 ratio to solvent |
| PLPESIPKL [FAM83B-derived peptide F594_9] | – | 3.8 ratio to solvent | ≥ 1.5 ratio to solvent | – |
| VYILLDESNF [FAM83B-derived peptide F176_10] | 1.2 ratio to solvent | 2.7 ratio to solvent | ≥ 1.5 ratio to solvent | – |
| VMYGSYSYMW [FAM83B-derived peptide F239_10] | 1.1 ratio to solvent | 2.2 ratio to solvent | ≥ 1.5 ratio to solvent | – |
| NLDLGWPYV [FAM83B-derived peptide F103_9] | 2.6 ratio to solvent | 1.1 ratio to solvent | – | ≥ 1.5 ratio to solvent |
